Measurements reported in the supplement of paper PMC7877785.
± gives the uncertainty stated by the source.

Assay: self-splicing fitness, log relative to wild type (ln ratio); higher = more splicing; Tetrahymena group I intron in knt gene, E. coli kanamycin selection, DiMSum; sequences stand for … in CUCUCU…GGAGGGAAAAGUUAUCAGGCAUGCACCUGGUAGCUAGUCUUUAAACCAAUAGAUUGCAUCGGUUUAAAAGGCAAGACCGUCAAAUUGCGGGAAAGGGGUCAACAGCCGUUCAGUACCAAGUCUCAGGGGAAACUUUGAGAUGGCCUUGCAAAGGGUAUGGUAAUAAGCUGACGGACAUGGUCCUAACCACGCAGCCAAGUCCUAAGUCAACAGAUCUUCUGUUGAUAUGGAUGCAGUUCACAGACUAAAUGUCGGUCGGGGAAGAUGUAUUCUUCUCAUAAGAUAUAGUCGGACCUCUCCUUAAUGGGAGCUAGCGGAUGAAGUGAUGCAACACUGGAGCCGCUGGGAACUAAUUUGUAUGCGAAAGUAUAUUGAUUAGUUUUGGAGUACUCGUGGUCG
Method in brief: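 Colonies from six replicate transformations of E. coli BL21(DE3) were pooled and amplicon-sequenced on an Illumina HiSeq 2500. The library placed an intron with all eight P1ex-region nucleotides randomised inside the knt kanamycin-resistance gene on pET-22b(+), and cells grew overnight at 37°C or 30°C on LB agar with or without 25 μg/mL kanamycin (plus 100 μg/mL carbenicillin, 50 μM IPTG, 0.2% rhamnose). Fitness is the DiMSum error-weighted combination of wild-type-normalised replicate fold changes, kanamycin versus none.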

| Sequence | self-splicing fitness (ln) (30 °C) | self-splicing fitness (ln) (37 °C) |
| --- | --- | --- |
| CACGAGCAAUAUUACGGGAU | -3.52 ± 0.28 | -2.33 ± 0.21 |
| CACGAGCAAUAUUACGGGCA | -2.84 ± 0.31 |  |
| CACGAGCAAUAUUACGGGUA | -3.26 ± 0.18 | -2.02 ± 0.16 |
| CACGAGCAAUAUUACGUCGU | -2.05 ± 0.14 | -3.43 ± 0.24 |
| CACGAGCAAUAUUACGUCUG | -2.32 ± 0.095 | -0.929 ± 0.092 |
| CACGAGCAAUAUUACGUGGG | -4.45 ± 0.29 | -2.71 ± 0.18 |
| CACUAGCAAUAUUACGAAAA | -3.29 ± 0.33 | -1.87 ± 0.26 |
| CACUAGCAAUAUUACGAAGA | -3.05 ± 0.24 | -2.27 ± 0.2 |
| CACUAGCAAUAUUACGAGAA | -2.74 ± 0.43 | -1.67 ± 0.28 |
| CACUAGCAAUAUUACGAGAG | -3.21 ± 0.2 | -1.73 ± 0.14 |
| CACUAGCAAUAUUACGCAAG | -2.39 ± 0.098 | -1.43 ± 0.12 |
| CACUAGCAAUAUUACGCGAA | -2.72 ± 0.19 | -2.74 ± 0.2 |
| CACUAGCAAUAUUACGCGCG | -1.1 ± 0.11 | -0.054 ± 0.14 |
| CACUAGCAAUAUUACGCGUU | -2.86 ± 0.13 | -0.877 ± 0.11 |
| CACUAGCAAUAUUACGCUAA | -3.33 ± 0.3 | -1.75 ± 0.19 |
| CACUAGCAAUAUUACGCUUG | -2.03 ± 0.16 | -0.991 ± 0.13 |
| CACUAGCAAUAUUACGGCAU | -4.16 ± 0.19 | -1.55 ± 0.14 |
| CACUAGCAAUAUUACGGCGA | -2.43 ± 0.16 | -1.61 ± 0.2 |
| CACUAGCAAUAUUACGGCGG | -0.21 ± 0.079 | -0.0455 ± 0.092 |
| CACUAGCAAUAUUACGGCUC | -2.9 ± 0.17 | -1.79 ± 0.3 |
| CACUAGCAAUAUUACGGCUU | -3.4 ± 0.24 | -1.91 ± 0.21 |
| CACUAGCAAUAUUACGGUCG | -0.198 ± 0.072 | 0.007 ± 0.085 |
| CACUAGCAAUAUUACGGUUC | -2.4 ± 0.12 | -1.45 ± 0.16 |
| CACUAGCAAUAUUACGGUUU | -1.56 ± 0.077 | -0.979 ± 0.093 |
| CACUAGCAAUAUUACGUACA | -2.35 ± 0.21 | -1.29 ± 0.4 |

| Sequence | self-splicing fitness (ln) (30 °C) | self-splicing fitness (ln) (37 °C) |
| --- | --- | --- |
| CACUAGCAAUAUUACGUAGA | -3.01 ± 0.089 | -1.81 ± 0.096 |
| CACUAGCAAUAUUACGUCUG | -0.516 ± 0.058 | 0.214 ± 0.074 |
| CACUAGCAAUAUUACGUGUG | -3.71 ± 0.14 | -2.82 ± 0.16 |
| CACUAGCAAUAUUACGUUGC | -2.61 ± 0.22 | -1.58 ± 0.21 |
| CACUAGCAAUAUUACGUUUG | -2.29 ± 0.079 | -1.42 ± 0.11 |
| CAGAAGCAAUAUUACGAAUU | -3.5 ± 0.2 | -2.05 ± 0.27 |
| CAGAAGCAAUAUUACGACGG | -0.126 ± 0.079 | 0.104 ± 0.1 |
| CAGAAGCAAUAUUACGAGUG | -1.63 ± 0.067 | -0.988 ± 0.091 |
| CAGAAGCAAUAUUACGAGUU | -3.32 ± 0.34 | -2.47 ± 0.3 |
| CAGAAGCAAUAUUACGCAUA | -3.68 ± 0.24 | -2.02 ± 0.18 |
| CAGAAGCAAUAUUACGCCUG | -2.25 ± 0.23 | -3.94 ± 0.39 |
| CAGAAGCAAUAUUACGCGGG | -2.43 ± 0.2 | -2.74 ± 0.27 |
| CAGAAGCAAUAUUACGCGGU | -3.61 ± 0.12 | -2.34 ± 0.14 |
| CAGAAGCAAUAUUACGCUGU | -4.53 ± 0.37 | -2.83 ± 0.21 |
| CAGAAGCAAUAUUACGCUUA | -3.85 ± 0.32 | -1.9 ± 0.18 |
| CAGAAGCAAUAUUACGGCGC | -3.28 ± 0.32 | -1.6 ± 0.31 |
| CAGAAGCAAUAUUACGUAUG | -4.42 ± 0.16 | -2.56 ± 0.13 |
| CAGAAGCAAUAUUACGUGGU | -3.58 ± 0.17 | -1.86 ± 0.16 |
| CAGAAGCAAUAUUACGUUAA | -3.62 ± 0.27 | -3.02 ± 0.43 |
| CAGAAGCAAUAUUACGUUGC | -4.27 ± 0.26 | -2.74 ± 0.25 |
| CAGCAGCAAUAUUACGAAAA | -2.36 ± 0.2 | -2.26 ± 0.28 |
| CAGCAGCAAUAUUACGAAAG | -0.597 ± 0.09 | -0.18 ± 0.12 |
| CAGCAGCAAUAUUACGAAAU | -3.94 ± 0.25 | -2.97 ± 0.27 |
| CAGCAGCAAUAUUACGAACA | -2.72 ± 0.38 | -2.17 ± 0.32 |
| CAGCAGCAAUAUUACGACGA | -1.68 ± 0.13 | -0.501 ± 0.096 |

| Sequence | self-splicing fitness (ln) (30 °C) | self-splicing fitness (ln) (37 °C) |
| --- | --- | --- |
| CAGCAGCAAUAUUACGACGC |  | -1.5 ± 0.45 |
| CAGCAGCAAUAUUACGAGAG | -2.38 ± 0.083 | -1.81 ± 0.089 |
| CAGCAGCAAUAUUACGAGAU | -2.65 ± 0.24 | -1.71 ± 0.2 |
| CAGCAGCAAUAUUACGAUAG | -0.297 ± 0.063 | -0.0435 ± 0.077 |
| CAGCAGCAAUAUUACGAUAU | -3.29 ± 0.24 | -2.3 ± 0.19 |
| CAGCAGCAAUAUUACGAUCA | -2.71 ± 0.2 | -1.88 ± 0.21 |
| CAGCAGCAAUAUUACGAUCU | -3.54 ± 0.35 | -2.38 ± 0.19 |
| CAGCAGCAAUAUUACGCGCA | -0.471 ± 0.13 | -0.346 ± 0.16 |
| CAGCAGCAAUAUUACGCUCU | -3.08 ± 0.16 | -2.08 ± 0.17 |
| CAGCAGCAAUAUUACGCUUA | -1.51 ± 0.13 | -0.645 ± 0.12 |
| CAGCAGCAAUAUUACGGACA | -2.86 ± 0.17 | -2.28 ± 0.17 |
| CAGCAGCAAUAUUACGGCCA | -0.605 ± 0.091 | -0.22 ± 0.11 |
| CAGCAGCAAUAUUACGGGGA | -1.98 ± 0.18 | -2.22 ± 0.19 |
| CAGCAGCAAUAUUACGGGGU | -3.28 ± 0.15 | -2.57 ± 0.16 |
| CAGCAGCAAUAUUACGGGUG | -1.35 ± 0.082 | -0.904 ± 0.085 |
| CAGCAGCAAUAUUACGGUCC | -3.63 ± 0.22 | -1.63 ± 0.2 |
| CAGCAGCAAUAUUACGUAUC | -3.6 ± 0.19 | -2.13 ± 0.13 |
| CAGCAGCAAUAUUACGUCAC | -1.69 ± 0.24 | -2.75 ± 0.28 |
| CAGCAGCAAUAUUACGUCCC | -2.38 ± 0.47 |  |
| CAGCAGCAAUAUUACGUCCU | -2.31 ± 0.17 | -0.614 ± 0.14 |
| CAGCAGCAAUAUUACGUCUA | -0.137 ± 0.045 | 0.377 ± 0.06 |
| CAGCAGCAAUAUUACGUCUC | -1.15 ± 0.064 | -0.898 ± 0.075 |
| CAGCAGCAAUAUUACGUGCA | -1.03 ± 0.061 | -0.673 ± 0.066 |
| CAGCAGCAAUAUUACGUGCU | -3.3 ± 0.13 | -1.94 ± 0.12 |
| CAGCAGCAAUAUUACGUGUA | -2.97 ± 0.078 | -1.65 ± 0.072 |

| Sequence | self-splicing fitness (ln) (30 °C) | self-splicing fitness (ln) (37 °C) |
| --- | --- | --- |
| CAGCAGCAAUAUUACGUUUC | -3.76 ± 0.17 | -2.53 ± 0.2 |
| CAGGAGCAAUAUUACGAAAU | -2.55 ± 0.33 |  |
| CAGGAGCAAUAUUACGAACC |  | -1.07 ± 0.24 |
| CAGGAGCAAUAUUACGACUG |  | -2.83 ± 0.38 |
| CAGGAGCAAUAUUACGAGAG | -1.92 ± 0.15 | -1.67 ± 0.17 |
| CAGGAGCAAUAUUACGAUAU | -1.88 ± 0.17 | -2.37 ± 0.35 |
| CAGGAGCAAUAUUACGAUGC |  | -2.83 ± 0.26 |
| CAGGAGCAAUAUUACGCAAA | -4.2 ± 0.46 |  |
| CAGGAGCAAUAUUACGCAAG | -2.98 ± 0.35 | -1.06 ± 0.27 |
| CAGGAGCAAUAUUACGCGAA | -1.4 ± 0.17 | -2.07 ± 0.23 |
| CAGGAGCAAUAUUACGCGAU | -3.06 ± 0.28 |  |
| CAGGAGCAAUAUUACGCGUC | -4.22 ± 0.36 | -3.04 ± 0.4 |
| CAGGAGCAAUAUUACGCUAG | -1.28 ± 0.23 | -1.1 ± 0.27 |
| CAGGAGCAAUAUUACGCUGG | -1.96 ± 0.26 | -0.934 ± 0.24 |
| CAGGAGCAAUAUUACGCUGU | -3.13 ± 0.43 | -2.65 ± 0.44 |
| CAGGAGCAAUAUUACGGAAC | -3.67 ± 0.43 |  |
| CAGGAGCAAUAUUACGGAGA | -2.81 ± 0.28 | -2.34 ± 0.37 |
| CAGGAGCAAUAUUACGGGCA | -2.48 ± 0.15 | -2.35 ± 0.22 |
| CAGGAGCAAUAUUACGGUCU | -3.85 ± 0.22 | -2.84 ± 0.17 |
| CAGGAGCAAUAUUACGUACG | -1.06 ± 0.088 | 0.312 ± 0.13 |
| CAGGAGCAAUAUUACGUAGG | -0.929 ± 0.1 | 0.172 ± 0.11 |
| CAGGAGCAAUAUUACGUAUG | -2.27 ± 0.082 | -1.5 ± 0.11 |
| CAGGAGCAAUAUUACGUGGG | -2.85 ± 0.18 | -2.31 ± 0.15 |
